Data reported in the supplement of paper PMC7877785.
± gives the uncertainty stated by the source.

Assay: self-splicing fitness, log relative to wild type (ln ratio); higher = more splicing; Tetrahymena group I intron in knt gene, E. coli kanamycin selection, DiMSum; sequences stand for … in CUCUCU…GGAGGGAAAAGUUAUCAGGCAUGCACCUGGUAGCUAGUCUUUAAACCAAUAGAUUGCAUCGGUUUAAAAGGCAAGACCGUCAAAUUGCGGGAAAGGGGUCAACAGCCGUUCAGUACCAAGUCUCAGGGGAAACUUUGAGAUGGCCUUGCAAAGGGUAUGGUAAUAAGCUGACGGACAUGGUCCUAACCACGCAGCCAAGUCCUAAGUCAACAGAUCUUCUGUUGAUAUGGAUGCAGUUCACAGACUAAAUGUCGGUCGGGGAAGAUGUAUUCUUCUCAUAAGAUAUAGUCGGACCUCUCCUUAAUGGGAGCUAGCGGAUGAAGUGAUGCAACACUGGAGCCGCUGGGAACUAAUUUGUAUGCGAAAGUAUAUUGAUUAGUUUUGGAGUACUCGUGGUCG
Method in brief: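 Pooled colonies went to amplicon sequencing on an Illumina HiSeq 2500 after six replicate transformations. The plates were LB agar with 100 μg/mL carbenicillin, 50 μM IPTG and 0.2% rhamnose, with or without 25 μg/mL kanamycin, incubated overnight at 37°C or 30°C. The E. coli BL21(DE3) library had all eight P1ex-region intron nucleotides randomised, the intron placed in the knt kanamycin-resistance gene on pET-22b(+). DiMSum fitness is the error-weighted combination of replicate fold changes, kanamycin against none, normalised to wild type.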

Row | Sequence | self-splicing fitness (ln) (30 °C) | self-splicing fitness (ln) (37 °C)
1 | AGCUAGCAAUAUUACGGUGU | -2.56 ± 0.11 | -1.22 ± 0.11
2 | AACAAGCAAUAUUACGUCCU | 0.214 ± 0.064 | 0.0455 ± 0.074
3 | GGACAGCAAUAUUACGGCAA | -1.32 ± 0.12 | -0.645 ± 0.12
4 | CAGGAGCAAUAUUACGCGUG | -3.2 ± 0.16 | -2.42 ± 0.17
5 | GCGCAGCAAUAUUACGCAUG | -3.37 ± 0.28 | -3.3 ± 0.33
6 | GGUCAGCAAUAUUACGCAUG | -1.15 ± 0.1 | -0.079 ± 0.12
7 | AAUAAGCAAUAUUACGACUG | -0.872 ± 0.088 | -1.18 ± 0.11
8 | ACCCAGCAAUAUUACGGGCA | 0.0145 ± 0.067 | -0.0091 ± 0.077
9 | CGUUAGCAAUAUUACGCGGG | -3.91 ± 0.24 | -3.13 ± 0.29
10 | CUCUAGCAAUAUUACGGAUU | -3.5 ± 0.21 | -2.75 ± 0.18
11 | CGAUAGCAAUAUUACGUCUA | -1.89 ± 0.13 | -0.377 ± 0.11
12 | AUAUAGCAAUAUUACGUGAG | -1.81 ± 0.063 | -0.565 ± 0.096
13 | UCGAAGCAAUAUUACGACUC | – | 0.412 ± 0.47
14 | GUGGAGCAAUAUUACGUAUU | -3.11 ± 0.17 | -1.68 ± 0.21
15 | UCAGAGCAAUAUUACGAACG | -3.12 ± 0.32 | -1.85 ± 0.3
16 | CCAAAGCAAUAUUACGUCCG | -0.225 ± 0.11 | -0.354 ± 0.14
17 | AUGAAGCAAUAUUACGGCCG | -0.163 ± 0.18 | 0.947 ± 0.26
18 | UGUUAGCAAUAUUACGCGGU | -4.19 ± 0.47 | –
19 | GAUUAGCAAUAUUACGAUAA | -0.956 ± 0.12 | 0.0487 ± 0.15
20 | AGGCAGCAAUAUUACGCAAG | -1.22 ± 0.072 | -0.387 ± 0.098
21 | CCCGAGCAAUAUUACGUAAC | -3.43 ± 0.23 | -3.05 ± 0.28
22 | UCCAAGCAAUAUUACGCUAG | -3.67 ± 0.32 | -3.6 ± 0.35
23 | CUCCAGCAAUAUUACGUAUG | -2.03 ± 0.077 | -1.8 ± 0.087
24 | GAUCAGCAAUAUUACGCCAA | -1.95 ± 0.15 | -0.747 ± 0.12
25 | GAAGAGCAAUAUUACGAGGC | – | -1.8 ± 0.41

Row | Sequence | self-splicing fitness (ln) (30 °C) | self-splicing fitness (ln) (37 °C)
26 | UGCGAGCAAUAUUACGGAAG | – | -2.26 ± 0.34
27 | GAGGAGCAAUAUUACGGAGG | – | -2.2 ± 0.24
28 | CUUAAGCAAUAUUACGAUCC | -3.31 ± 0.44 | –
29 | UCGGAGCAAUAUUACGCGGU | -3.14 ± 0.23 | -2.94 ± 0.43
30 | GACAAGCAAUAUUACGCCUU | -1.15 ± 0.14 | -1.04 ± 0.13
31 | GUGGAGCAAUAUUACGGCAA | – | -1.55 ± 0.35
32 | ACAAAGCAAUAUUACGUUGC | -3.26 ± 0.12 | -2.57 ± 0.16
33 | GAACAGCAAUAUUACGAGGU | -3.08 ± 0.14 | -1.71 ± 0.12
34 | AACCAGCAAUAUUACGAAAC | -2.26 ± 0.14 | -0.477 ± 0.16
35 | GUAGAGCAAUAUUACGACUA | -0.724 ± 0.071 | 0.693 ± 0.11
36 | GGCCAGCAAUAUUACGACCA | -1.46 ± 0.1 | -0.797 ± 0.11
37 | CGAUAGCAAUAUUACGUUCG | -3.06 ± 0.24 | -1.9 ± 0.33
38 | GAACAGCAAUAUUACGAUUG | -1.62 ± 0.082 | -1.26 ± 0.11
39 | AUAGAGCAAUAUUACGCACC | -1.1 ± 0.35 | -1.41 ± 0.44
40 | GAUAAGCAAUAUUACGGUUA | -0.72 ± 0.12 | 0.108 ± 0.11
41 | CGCCAGCAAUAUUACGGUUA | -0.708 ± 0.055 | 0.0109 ± 0.058
42 | UCUAAGCAAUAUUACGGUUA | -3.9 ± 0.42 | -1.76 ± 0.17
43 | UCGGAGCAAUAUUACGUGGA | -1.28 ± 0.2 | -1.48 ± 0.18
44 | AGAGAGCAAUAUUACGAAUU | -1.19 ± 0.2 | -2.95 ± 0.32
45 | CCAGAGCAAUAUUACGUAUG | -2.22 ± 0.11 | -1.77 ± 0.12
46 | GUGCAGCAAUAUUACGACCU | -1.51 ± 0.27 | -0.504 ± 0.24
47 | AGAUAGCAAUAUUACGAUUA | -0.68 ± 0.15 | -0.852 ± 0.14
48 | UACCAGCAAUAUUACGCGAA | -0.474 ± 0.063 | -0.386 ± 0.086
49 | GUGCAGCAAUAUUACGACCG | -2.18 ± 0.2 | -1.5 ± 0.27
50 | AGUGAGCAAUAUUACGGAUU | -3.48 ± 0.26 | -1.28 ± 0.21
